Literature values in publication PMC8125740.

Target: Amyloid beta (Homo sapiens) (UniProt P05067)

In the case of “Cellular prion protein (from UniProt P04156)”, the Kd is listed as 1 nM.
